Results reported in patent US11883498B2, “Luteinizing hormone-releasing hormone receptor (LHRH-R) conjugates and uses thereof” (priority 2016, dated 2024).
pIC50, pKd: −log10 of the molar value.

Experiments:
[1] = tested on: MDA-MB231 tumor xenografts; details: for Competition of kidney uptake by coadministered unlabeled conjugate: 100-fold excess unlabeled conjugate
Procedure: Animal Husbandry and in vivo tumor implantation. Female athymic nu/nu mice were purchased from Harlan laboratories. The animals were housed in a sterile environment and kept in 12 h light/day cycle. The animals have free access to rodent chow and water. 2×10^6 MDA-MB23 cells were suspended in 100 microliters of sterile phosphate buffer saline and injected subcutaneously into the right flank of each mouse.
In vivo imaging and biodistribution. All the animal experiments were conducted in accordance to the guidelines approved by Purdue Animal Care and Use Committee. The experiment was initiated once the tumor volume reached approximately 300-400 mm^3. Tumor volume was measured as 0.5×L×W2, where L is the longest axis and W is an axis perpendicular to L in mm. In the lateral tail vein, the mice were injected with 150 μCi of the radioactive conjugates (either in the presence or absence of excess of the unlabeled conjugates.) in 100 μl of sterile phosphate buffer saline For imaging mice were euthanized 2 h post injection by CO2 asphyxiation and imaged using Kodak Imaging Station. After imaging necroscopy was performed on animals to remove selected tissue and weighted. Tissue bound radioactivity was quantified by using gamma counter (Packard Gamma Counter) For time course study, the animals were sacrificed at following time points post injections: 2 h, 4 h, 6 h, and 8 h. Tissue of interest was weighed and the tissue bound radioactivity was counted by using gamma counter. Count per minute values of tissues bound radioactivity was decay corrected and converted into percentage injected dose per gram if the tissue (% ID/g). The data was analyzed by using GraphPad Prism.
In vivo whole body imaging and biodistribution of JL-L1A, JL-L2A and JL-L3A. In order to investigate the uptake of radioactive conjugates in LHRH-R positive tumors all the three conjugates (150 μCi) were injected the lateral vein of mice with MDA-MB231 tumors. For competition studies the mice were additional injected with 100-fold excess of the unlabeled conjugates. MDA-MB231 tumor bearing mice were injected with the ^99mTc chelated conjugates in their lateral tail vein (mice labeled as treated). Another group of mice were injected with the ^99mTc labeled molecules but in the presence of excess of the unlabeled conjugates. Images were taken 2 h post injections. FIG. 17A represents whole body imaging of JL-L1A whereas FIG. 17B and FIG. 17C represents the whole body imaging of JL-L2A and JL-L3A respectively. (n=5).
The further investigate the retention of 99mTc chelated JL-L3A, the radioactive conjugate was injected in mice with MDA-MB231 xenografts. After euthanizing the. Animals at 2 h, 4 h and 8 h post injection they were imaged and radioactivity associated with organs of interest was counted. […] MDA-MB231 tumor bearing mice were injected with the ^99mTc chelated conjugates in their lateral tail vein (mice labeled as treated). Another group of mice were injected with the ^99mTc labeled molecules but in the presence of excess of the unlabeled conjugates. Radioactivity of all the major organs and blood were determined 2 h post injection and the percentage injected dose per gram of the tissue was plotted. FIG. 18A represents biodistribution of JL-L1A whereas FIG. 18B and FIG. 18C represents the biodistribution of JL-L2A and JL-L3A respectively (n=5). Error bar indicates standard deviation.

[2] = molecular target: T1, LHRH-R (Homo sapiens, UniProt P30968); assay: In vitro binding assay of 99mTc radioactive conjugate by cell bound radioactivity; details: MDA-MB231 cells
T1 construct: LHRH-R positive breast cancer cell, MDA-MB231; endogenous in cells; host or cells: MDA-MB231 breast cancer cells
T1 sequence (P30968 1-328): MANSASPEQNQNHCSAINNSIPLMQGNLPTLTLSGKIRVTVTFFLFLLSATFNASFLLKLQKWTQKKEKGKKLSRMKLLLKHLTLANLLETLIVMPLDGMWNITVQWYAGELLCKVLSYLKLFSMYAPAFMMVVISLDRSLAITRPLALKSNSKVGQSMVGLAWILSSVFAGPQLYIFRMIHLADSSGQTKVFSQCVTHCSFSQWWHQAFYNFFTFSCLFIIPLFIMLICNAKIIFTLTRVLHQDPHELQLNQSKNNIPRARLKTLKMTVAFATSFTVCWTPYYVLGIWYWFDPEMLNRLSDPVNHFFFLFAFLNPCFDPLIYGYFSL
Procedure: In vitro binding assay. MDA-MB231 cells were seeded in 24 well plate and allowed to form a monolayer. […] The cells were incubated for 2 h at 37° C. and then rinsed three times with medium. After rinsing cells were dissolved by adding 0.5 ml of 0.25N NaOH to each well for 20 minutes. The cell bound radioactivity measured by using Packcard gamma counter and the Kd was calculated using the graphpad prism by plotting the cell bound radioactivity against the concentration of radiotracer. […] Solid circle indicates ^99mTc chelated conjugates whereas open circle indicates competition.
To determine the binding affinity, the MDA-MB231 cells were incubated with various concentrations of the radioactive conjugate JL-L1A either in the presence or absence of the unlabeled conjugate for 2 h at 37° C.

[3] = tested on: SKOV3 cells; type: cell-based, human; details: free drug, 2 h exposure + 66 h, 3H-thymidine incorporation
Procedure: (§1) In vitro determination of cell viability. MDA-MB231 and SKVO3 cells were seeded at a concentration of 10,000 cells per well on a 24 well plate and allowed to grow in monolayers. […] After incubating for 2 h at 37° C., cells were rinsed three times with fresh medium and then incubated in 0.5 ml fresh medium for an additional 66 h at 37° C. Sent medium was then replaced with 0.5 ml of medium containing ^3H-thymidine and incubated for additional 4 h. Cells were then again washed three times with the fresh medium and then incubated with 0.5 ml of 2.5% trichloroacetic acid for 10 min at room temperature. After removing the trichloroacetic acid, cells were dissolved in 0.25 N NaOH. Cell viability was determined by counting the incorporation of ^3H-thymidine in cells using scintillation counter (Packard, Packard Instrument Company). The IC50 value was derived from a plot of the percent of ^3H-thymidine incorporation versus log concentration using Graph Pad Prism 4.
(§2) In vitro cytotoxicity of tubulysin B hydrazide conjugate: To inspect the killing efficiency of the therapeutic conjugate, MDA-MB231 and SKOV3 cancer cells were incubated with various concentrations of JL-L3-TubBH either in the presence or absence of excess JL-L3, for 2 h at 37° C. After washing off the excess conjugate, the cells were incubated in fresh media for an additional 66 h followed by incubation with media containing ^3H-thymidine to assess cell viability. Radioactivity was counted using PerkinElmer's scintillation counter. The same procedure was repeated after exposing the cells to the free tubulysin B hydrazide.

[4] = tested on: MDA-MB231 cells; type: cell-based, human; details: free drug, 2 h exposure + 66 h, 3H-thymidine incorporation; read-out: IC50
Procedure: as §1, §2

`Cc1c(-c2cccc(CCC(=O)NCCCCCCCC(=O)N[C@H](CCC(=O)NC[C@H](O)[C@@H](O)[C@H](O)[C@H](O)CO)C(=O)N[C@H](CCC(=O)O)C(=O)N[C@H](CCC(=O)NC[C@H](O)[C@@H](O)[C@H](O)[C@H](O)CO)C(=O)NC[C@H](N)C(=O)N[C@@H](CC(=O)O)C(=O)N[C@@H](CS)C(=O)O)c2)c(=O)n(C[C@H](N)c2ccccc2)c(=O)n1Cc1c(F)cccc1F` (99mTc complex, metal not drawn) [JL-L3A] was tested, and the “Kidney and liver uptake” value ([1]; 99mTc conjugate) was “non-specific”, the “Competition of kidney uptake by coadministered unlabeled conjugate” value ([1]; 2 h post injection) was “not competed” and the Kidney uptake ([1]; 150 μCi, 2 h post injection) was “highest uptake in the kidney”. The Spleen uptake ([1]; 150 μCi, 2 h post injection) was “only minimal activity”, the “Biodistribution compared among the three conjugates” value ([1]; 2 h post injection) was “most favorable biodistributions” and the “Tissue distribution at 4 h and 8 h post injection” value ([1]; compared with 2 h post injection) was “same pattern as 2 h post injection”. For the same compound, the “Tumor radioactivity intensity at 8 h relative to 2 h post-injection” value ([1]; time-dependent imaging, 2 h, 4 h, 8 h) was “less than half of the intensity at 2 h post-injection”.

In the case of `Cc1c(-c2cccc(CCC(=O)N[C@@H](CCC(=O)N[C@H](CCC(=O)NC[C@H](N)C(=O)N[C@@H](CC(=O)O)C(=O)N[C@@H](CS)C(=O)O)C(=O)O)C(=O)O)c2)c(=O)n(C[C@H](N)c2ccccc2)c(=O)n1Cc1c(F)cccc1F` [JL-L1A], the Tumor uptake ([1]; 150 μCi 99mTc conjugate i.v., 2 h post injection, with/without 100-fold excess unlabeled conjugate) was “highest uptake in the tumor” and the “Uptake in other organs” value ([1]; 150 μCi, 2 h post injection) was “uptake in other vital organs”.

`Cc1c(-c2cccc(CCC(=O)NCCOCCOCCOCCOCCOCCOCCC(=O)NC[C@H](N)C(=O)N[C@@H](CC(=O)O)C(=O)N[C@@H](CS)C(=O)O)c2)c(=O)n(C[C@H](N)c2ccccc2)c(=O)n1Cc1c(F)cccc1F` [JL-L2A] was tested, and the “Competition of kidney uptake by coadministered unlabeled conjugate” value ([1]; 2 h post injection) was “not competed”, the Kidney uptake ([1]; 150 μCi, 2 h post injection) was “highest uptake in the kidney” and the Spleen uptake ([1]; 150 μCi, 2 h post injection) was “significant non-specific uptake in the spleen”.

`Cc1c(-c2cccc(CCC(=O)NCCCCCCCC(=O)N[C@H](CCC(=O)NC[C@H](O)[C@@H](O)[C@H](O)[C@H](O)CO)C(=O)N[C@H](CCC(=O)O)C(=O)N[C@H](CCC(=O)NC[C@H](O)[C@@H](O)[C@H](O)[C@H](O)CO)C(=O)NC[C@H](N)C(=O)N[C@@H](CC(=O)O)C(=O)N[C@@H](CS)C(=O)O)c2)c(=O)n(C[C@H](N)c2ccccc2)c(=O)n1Cc1c(F)cccc1F` [JL-L3A] was tested, and the pKd ([2]; 99mTc chelated conjugate, 2 h at 37° C.) was 7.84 and the “Cell-bound radioactivity under competition” value ([2]; presence of excess of competing ligand) was “diminished”.

Compound `CCCC(=O)OCN(C(=O)[C@@H](NC(=O)[C@H]1CCCCN1C)C(C)CC)[C@H](C[C@@H](OC(C)=O)c1nc(C(=O)N[C@@H](Cc2ccc(O)cc2)C[C@H](C)C(=O)NN)cs1)C(C)C` (stereo partly shown) [tubulysin B hydrazide, Tubulysin B hydrazide, reference compound] has a pIC50 [3] of 11.30 and a pIC50 [4] of 10.17.
